The test system of data set [1] is HeLa Kyoto. Nature of the data set: thermal stability score vs G1/S (z-score of summed log2 fold changes over temperatures); higher = more thermally stable than in G1/S.
In data set [2] the test system is HeLa Kyoto. Nature of the data set: solubility in G1/S (NP-40 vs SDS abundance) (log2 ratio); higher = more soluble. The conditions noted are these: cell cycle stage: G1/S.
Data set [3] deals with HeLa Kyoto. Nature of the data set: melting temperature (median over replicates), in situ; higher = more thermally stable.
The test system of data set [4] is HeLa Kyoto. The data set is described as follows: solubility change mitosis vs G1/S (difference of NP-40 vs SDS log2 ratios) (log2 ratio difference); higher = more soluble in mitosis.
[5] abbreviates: cell cycle stage: early G1 (4.5 h after nocodazole release).
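For melting temperature (median over replicates), in situ in this document: HeLa Kyoto cells synchronized by double thymidine or nocodazole block, proteins quantified by TMT10plex mass spectrometry, three independent biological replicates.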
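For solubility change mitosis vs G1/S (difference of NP-40 vs SDS log2 ratios) in this document: synchronized HeLa Kyoto cells (double thymidine block for G1/S, nocodazole release for mitosis), protein amounts in NP-40 versus SDS lysates quantified by mass spectrometry, three biological replicates.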
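For solubility in G1/S (NP-40 vs SDS abundance) in this document: HeLa Kyoto cells arrested at G1/S by double thymidine block, proteins quantified by TMT10plex mass spectrometry in mild NP-40 versus SDS extracts, three biological replicates.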
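For thermal stability score vs G1/S (z-score of summed log2 fold changes over temperatures) in this document: synchronized HeLa Kyoto cells, proteins quantified by TMT10plex mass spectrometry, three biological replicates, mitosis taken 0.5 h after nocodazole release, G1/S directly after double thymidine block.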

As to “MGNLLKVLTCTDLEQGPNFFLDFENAQPTESEKEIYNQVNVVLKDAEGILEDLQSYRGAGHEIREAIQHPADEKLQEKAWGAVVPLVGKLKKFYEFSQRLEAALRGLLGALTSTPYSPTQHLEREQALAKQFAEILHFTLRFDELKMTNPAIQNDFSYYRRTLSRMRINNVPAEGENEVNNELANRMSLFYAEATPMLKTLSDATTKFVSENKNLPIENTTDCLSTMASVCRVMLETPEYRSRFTNEETVSFCLRVMVGVIILYDHVHPVGAFAKTSKIDMKGCIKVLKDQPPNSVEGLLNALRYTTKHLNDETTSKQIKSMLQ [FAM49B]”, the thermal stability score in the data set on HeLa Kyoto [1] (setting [5]) stood at 1.27; with HeLa Kyoto [1] (cell cycle stage: mitosis), 0.808. Also, in the data set with HeLa Kyoto [2], the “solubility in G1/S (log2)” value is 0.31. Further, the melting temperature in the data set with HeLa Kyoto [3] (cell cycle stage: G1/S) and with HeLa Kyoto [3] (cell cycle stage: mitosis) was 54.2 °C throughout. Further, the “solubility change mitosis (log2)” value with HeLa Kyoto [4] was found to be 0.0154.

As to DOCK9, the results for the thermal stability score in the data set on HeLa Kyoto [1] (setting [5]) and in the data set with HeLa Kyoto [1] (cell cycle stage: mitosis) were -0.162 and -0.395, respectively. In addition, in the data set on HeLa Kyoto [2], the “solubility in G1/S (log2)” value was -0.203. For the same substance, the melting temperature in the data set on HeLa Kyoto [3] (cell cycle stage: G1/S) is 51.4 °C; in the data set with HeLa Kyoto [3] (cell cycle stage: mitosis), 50.6 °C. Also, the “solubility change mitosis (log2)” value in the data set on HeLa Kyoto [4] was -0.156.

Regarding “MATAMDWLPWSLLLFSLMCETSAFYVPGVAPINFHQNDPVEIKAVKLTSSRTQLPYEYYSLPFCQPSKITYKAENLGEVLRGDRIVNTPFQVLMNSEKKCEVLCSQSNKPVTLTVEQSRLVAERITEDYYVHLIADNLPVATRLELYSNRDSDDKKKEKDVQFEHGYRLGFTDVNKIYLHNHLSFILYYHREDMEEDQEHTYRVVRFEVIPQSIRLEDLKADEKSSCTLPEGTNSSPQEIDPTKENQLYFTYSVHWEESDIKWASRWDTYLTMSDVQIHWFSIINSVVVVFFLSGILSMIIIRTLRKDIANYNKEDDIEDTMEESGWKLVHGDVFRPPQYPMILSSLLGSGIQLFCMILIVIFVAMLGMLSPSSRGALMTTACFLFMFMGVFGGFSAGRLYRTLKGHRWKKGAFCTATLYPGVVFGICFVLNCFIWGKHSSGAVPFPTMVALLCMWFGISLPLVYLGYYFGFRKQPYDNPVRTNQIPRQIPEQRWYMNRFVGILMAGILPFGAMFIELFFIFSAIWENQFYYLFGFLFLVFIILVVSCSQISIVMVYFQLCAEDYRWWWRNFLVSGGSAFYVLVYAIFYFVNKLDIVEFIPSLLYFGYTALMVLSFWLLTGTIGFYAAYMFVRKIYAAVKID [TM9SF4]”, the results for the thermal stability score in the data set on HeLa Kyoto [1] (setting [5]) and in the data set on HeLa Kyoto [1] (cell cycle stage: mitosis) were 1.93 and 4.73, respectively. Also, the “solubility in G1/S (log2)” value in the data set on HeLa Kyoto [2] is -0.198. For the same substance, the melting temperature in the data set with HeLa Kyoto [3] (cell cycle stage: G1/S) came to 52.5 °C; with HeLa Kyoto [3] (cell cycle stage: mitosis), 53.3 °C. In addition, the “solubility change mitosis (log2)” value with HeLa Kyoto [4] was -0.228.

Consider “MEAVLNELVSVEDLLKFEKKFQSEKAAGSVSKSTQFEYAWCLVRSKYNDDIRKGIVLLEELLPKGSKEEQRDYVFYLAVGNYRLKEYEKALKYVRGLLQTEPQNNQAKELERLIDKAMKKDGLVGMAIVGGMALGVAGLAGLIGLAVSKSKS [FIS1]”, for which the thermal stability score with HeLa Kyoto [1] (setting [5]) is -2.36; with HeLa Kyoto [1] (cell cycle stage: mitosis), -0.553. Besides, in the data set with HeLa Kyoto [2], the “solubility in G1/S (log2)” value was 0.15. The melting temperature worked out at 54.2 °C in the data set with HeLa Kyoto [3] (cell cycle stage: G1/S) and 53.8 °C in the data set on HeLa Kyoto [3] (cell cycle stage: mitosis). In addition, in the data set on HeLa Kyoto [4], the “solubility change mitosis (log2)” value is 0.251.

As to “MCQVGEDYGEPAPEEPPPAPRPSREQKCVKCKEAQPVVVIRAGDAFCRDCFKAFYVHKFRAMLGKNRLIFPGEKVLLAWSGGPSSSSMVWQVLEGLSQDSAKRLRFVAGVIFVDEGAACGQSLEERSKTLAEVKPILQATGFPWHVVALEEVFSLPPSVLWCSAQELVGSEGAYKAAVDSFLQQQHVLGAGGGPGPTQGEEQPPQPPLDPQNLARPPAPAQTEALSQLFCSVRTLTAKEELLQTLRTHLILHMARAHGYSKVMTGDSCTRLAIKLMTNLALGRGAFLAWDTGFSDERHGDVVVVRPMRDHTLKEVAFYNRLFSVPSVFTPAVDTKAPEKASIHRLMEAFILRLQTQFPSTVSTVYRTSEKLVKGPRDGPAAGDSGPRCLLCMCALDVDAADSATAFGAQTSSRLSQMQSPIPLTETRTPPGPCCSPGVGWAQRCGQGACRREDPQACIEEQLCYSCRVNMKDLPSLDPLPPYILAEAQLRTQRAWGLQEIRDCLIEDSDDEAGQS [CTU2]”, the thermal stability score in the data set on HeLa Kyoto [1] (setting [5]) is -0.721; with HeLa Kyoto [1] (cell cycle stage: mitosis) it was -0.101. Moreover, the “solubility in G1/S (log2)” value with HeLa Kyoto [2] turned out to be 0.28. In addition, the melting temperature in the data set on HeLa Kyoto [3] (cell cycle stage: G1/S) stood at 53.4 °C; with HeLa Kyoto [3] (cell cycle stage: mitosis) it was 52.8 °C. The “solubility change mitosis (log2)” value in the data set with HeLa Kyoto [4] is -0.166.

Source of the values: the supplement of paper PMC5998384.
